Laboratory results from patent publication US20250154279A1 (BEIGENE, published 2025).

How the values were obtained:
[1] = molecular target: T1, human CD137 (recombinant antigen of the ELISA of Example 2 and the SPR of Example 3; construct not stated) (human, UniProt Q07011 24-186, limits assumed); test: SPR
T1 construct: also called huCD137

[2] = molecular target: T2, human CD137 over-expressed on HuT78 cells (HuT78/CD137) (human, UniProt Q07011 24-255); test: flow cytometry on live HuT78/CD137 cells
T2 construct: also called Hut78/huCD137; native CD137
T2 sequence (Q07011 24-255 limits assumed): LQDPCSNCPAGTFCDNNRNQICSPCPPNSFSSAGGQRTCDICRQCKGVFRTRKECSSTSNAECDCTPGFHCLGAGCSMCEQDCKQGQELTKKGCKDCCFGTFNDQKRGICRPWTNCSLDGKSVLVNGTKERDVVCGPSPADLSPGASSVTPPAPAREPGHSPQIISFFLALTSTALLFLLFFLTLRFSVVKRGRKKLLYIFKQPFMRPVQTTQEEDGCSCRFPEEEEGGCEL
Description: To evaluate the binding activity of anti-CD137 antibody to bind native CD137 on live cells, HuT78 cells were engineered to over-express human CD137. Live HuT78/CD137 cells were seeded in a 96-well plate, and were incubated with a series of dilutions of anti-CD137 antibody. Goat anti-Human IgG was used as secondary antibody to detect antibody binding to the cell surface. EC₅₀ values for dose-dependent binding to human native CD137 were determined by fitting the dose-response data to the four-parameter logistic model with GraphPad Prism™. The humanized VHHs retained sub-nanomolar binding affinity to native CD137.

[3] = molecular target: T1, human CD137 (recombinant antigen of the …); test: SPR, antibody captured on anti-human Fc surface, Test 1
From the text: (§1) For affinity determination, antibodies were captured by anti-human Fe surface, and used in the affinity—assay based on surface plasmon resonance (SPR) technology.

[4] = molecular target: T1, human CD137 (recombinant antigen of the …); test: SPR, antibody captured on anti-human Fc surface, Test 2
From the text: as §1

[5] = molecular target: T1, human CD137 (recombinant antigen of the …); test: SPR; remark: listed apart in the source

B1: BGA-9612 (chimeric Fc-VHH, as compared with the humanized VHHs in Examples 3-4) (VHH)
chain: EPKSSDKTHTCPPCPAPPAAGPSVFLFPPKPKDTLMISRTPEVTCVVVDVSHEDPEVKFNWYVDGVEVHNAKTKPREEQYNSTYRVVSVLTVLHQDWLNGKEYKCKVSNKALAAPIEKTISKAKGQPREPQVYTLPPSREEMTKNQVSLTCLVKGFYPSDIAVEWESNGQPENNYKTTPPVLDSDGSFFLYSKLTVDKSRWQQGNVFSCSVMHEALHNHYTQKSLSLSPGKGGGGSQVQLVESGGGTVQPGDSLRLSCAASGRTFDNYAVGWFRQAPGKERQYVGTYWSGYAHYGDFENNRFTISRDNAKNTVYLQMDNLKPEDTAVYYCAISLKYPMATVTPDYQGQGTQVTVSS
Q: What does the source list for B1?
A: Kd [1]: 20.3 nM; koff [1]: 0.000419 s⁻¹; kon [1]: 20700 M⁻¹ s⁻¹; EC50 [2]: 0.85 nM; Kd [3]: 20.3 nM; koff [3]: 0.000419 s⁻¹; kon [3]: 20700 M⁻¹ s⁻¹; Kd [4]: 15.2 nM; koff [4]: 0.000754 s⁻¹; kon [4]: 49500 M⁻¹ s⁻¹

B2: BGA-6582-E44G (VHH)
chain: EPKSSDKTHTCPPCPAPPAAGPSVFLFPPKPKDTLMISRTPEVTCVVVDVSHEDPEVKFNWYVDGVEVHNAKTKPREEQYNSTYRVVSVLTVLHQDWLNGKEYKCKVSNKALAAPIEKTISKAKGQPREPQVYTLPPSREEMTKNQVSLTCLVKGFYPSDIAVEWESNGQPENNYKTTPPVLDSDGSFFLYSKLTVDKSRWQQGNVFSCSVMHEALHNHYTQKSLSLSPGKGGGGSEVQLLESGGGLVQPGGSLRLSCAASGRTFDNYAVGWFRQAPGKGRQYVGTYWSGYAHYGDFENNRFTISRDNSKNTVYLQMNSLRAEDTAVYYCAISLKYPMATVTPDYQGQGTLVTVSS
Q: For B2, which Kd [5] is on record?
A: 9.16 nM

Q: What about the koff [5] of the same binder?
A: 0.000242 s⁻¹

Q: And the kon [5]?
A: 26400 M⁻¹ s⁻¹

B3: BGA-3544 (humanized VHH, Fc-VHH format) (VHH)
chain: EPKSSDKTHTCPPCPAPPAAGPSVFLFPPKPKDTLMISRTPEVTCVVVDVSHEDPEVKFNWYVDGVEVHNAKTKPREEQYNSTYRVVSVLTVLHQDWLNGKEYKCKVSNKALAAPIEKTISKAKGQPREPQVYTLPPSREEMTKNQVSLTCLVKGFYPSDIAVEWESNGQPENNYKTTPPVLDSDGSFFLYSKLTVDKSRWQQGNVFSCSVMHEALHNHYTQKSLSLSPGKGGGGSEVQLVESGGGLVQPGGSLRLSCAASGRTFDNYAVGWFRQAPGKEREYVGTYWSGYAHYGDFEKGRFTISRDNSKNTVYLQMNNLRPEDTAVYYCAISLKYPMATVTPDYQGQGTQVTVSS
Q: Which results are given for B3?
A: EC50 [2]: 0.85 nM; Kd [4]: 17.6 nM; koff [4]: 0.000999 s⁻¹; kon [4]: 56900 M⁻¹ s⁻¹

B4: BGA-6582-G49S (VHH)
chain: EPKSSDKTHTCPPCPAPPAAGPSVFLFPPKPKDTLMISRTPEVTCVVVDVSHEDPEVKFNWYVDGVEVHNAKTKPREEQYNSTYRVVSVLTVLHQDWLNGKEYKCKVSNKALAAPIEKTISKAKGQPREPQVYTLPPSREEMTKNQVSLTCLVKGFYPSDIAVEWESNGQPENNYKTTPPVLDSDGSFFLYSKLTVDKSRWQQGNVFSCSVMHEALHNHYTQKSLSLSPGKGGGGSEVQLLESGGGLVQPGGSLRLSCAASGRTFDNYAVGWFRQAPGKERQYVSTYWSGYAHYGDFENNRFTISRDNSKNTVYLQMNSLRAEDTAVYYCAISLKYPMATVTPDYQGQGTLVTVSS
Q: Does B4 bind [5]?
A: no binding

B5: BGA-3726 (BGA-6582-Q46E) (VHH)
chain: EPKSSDKTHTCPPCPAPPAAGPSVFLFPPKPKDTLMISRTPEVTCVVVDVSHEDPEVKFNWYVDGVEVHNAKTKPREEQYNSTYRVVSVLTVLHQDWLNGKEYKCKVSNKALAAPIEKTISKAKGQPREPQVYTLPPSREEMTKNQVSLTCLVKGFYPSDIAVEWESNGQPENNYKTTPPVLDSDGSFFLYSKLTVDKSRWQQGNVFSCSVMHEALHNHYTQKSLSLSPGKGGGGSEVQLLESGGGLVQPGGSLRLSCAASGRTFDNYAVGWFRQAPGKEREYVGTYWSGYAHYGDFENNRFTISRDNSKNTVYLQMNSLRAEDTAVYYCAISLKYPMATVTPDYQGQGTLVTVSS
Q: With B5 as the binder, how does the Kd [5] read?
A: 14.3 nM

Q: And the koff [5]?
A: 0.000432 s⁻¹

Q: And the kon [5]?
A: 30200 M⁻¹ s⁻¹

B6: BGA-6582-F37V (VHH)
chain: EPKSSDKTHTCPPCPAPPAAGPSVFLFPPKPKDTLMISRTPEVTCVVVDVSHEDPEVKFNWYVDGVEVHNAKTKPREEQYNSTYRVVSVLTVLHQDWLNGKEYKCKVSNKALAAPIEKTISKAKGQPREPQVYTLPPSREEMTKNQVSLTCLVKGFYPSDIAVEWESNGQPENNYKTTPPVLDSDGSFFLYSKLTVDKSRWQQGNVFSCSVMHEALHNHYTQKSLSLSPGKGGGGSEVQLLESGGGLVQPGGSLRLSCAASGRTFDNYAVGWVRQAPGKERQYVGTYWSGYAHYGDFENNRFTISRDNSKNTVYLQMNSLRAEDTAVYYCAISLKYPMATVTPDYQGQGTLVTVSS
Q: Does B6 bind [5]?
A: no binding

B7: BGA-6582-I94K (VHH)
chain: EPKSSDKTHTCPPCPAPPAAGPSVFLFPPKPKDTLMISRTPEVTCVVVDVSHEDPEVKFNWYVDGVEVHNAKTKPREEQYNSTYRVVSVLTVLHQDWLNGKEYKCKVSNKALAAPIEKTISKAKGQPREPQVYTLPPSREEMTKNQVSLTCLVKGFYPSDIAVEWESNGQPENNYKTTPPVLDSDGSFFLYSKLTVDKSRWQQGNVFSCSVMHEALHNHYTQKSLSLSPGKGGGGSEVQLLESGGGLVQPGGSLRLSCAASGRTFDNYAVGWFRQAPGKERQYVGTYWSGYAHYGDFENNRFTISRDNSKNTVYLQMNSLRAEDTAVYYCAKSLKYPMATVTPDYQGQGTLVTVSS
Q: Does B7 bind [5]?
A: no binding

B8: BGA-6582-R45L (VHH)
chain: EPKSSDKTHTCPPCPAPPAAGPSVFLFPPKPKDTLMISRTPEVTCVVVDVSHEDPEVKFNWYVDGVEVHNAKTKPREEQYNSTYRVVSVLTVLHQDWLNGKEYKCKVSNKALAAPIEKTISKAKGQPREPQVYTLPPSREEMTKNQVSLTCLVKGFYPSDIAVEWESNGQPENNYKTTPPVLDSDGSFFLYSKLTVDKSRWQQGNVFSCSVMHEALHNHYTQKSLSLSPGKGGGGSEVQLLESGGGLVQPGGSLRLSCAASGRTFDNYAVGWFRQAPGKELQYVGTYWSGYAHYGDFENNRFTISRDNSKNTVYLQMNSLRAEDTAVYYCAISLKYPMATVTPDYQGQGTLVTVSS
Q: With B8 as the binder, how does the Kd [5] read?
A: 14.8 nM

Q: What about the koff [5] of the same binder?
A: 0.000413 s⁻¹

Q: And the kon [5]?
A: 27800 M⁻¹ s⁻¹

B9: BGA-6582-Y47W (VHH)
chain: EPKSSDKTHTCPPCPAPPAAGPSVFLFPPKPKDTLMISRTPEVTCVVVDVSHEDPEVKFNWYVDGVEVHNAKTKPREEQYNSTYRVVSVLTVLHQDWLNGKEYKCKVSNKALAAPIEKTISKAKGQPREPQVYTLPPSREEMTKNQVSLTCLVKGFYPSDIAVEWESNGQPENNYKTTPPVLDSDGSFFLYSKLTVDKSRWQQGNVFSCSVMHEALHNHYTQKSLSLSPGKGGGGSEVQLLESGGGLVQPGGSLRLSCAASGRTFDNYAVGWFRQAPGKERQWVGTYWSGYAHYGDFENNRFTISRDNSKNTVYLQMNSLRAEDTAVYYCAISLKYPMATVTPDYQGQGTLVTVSS
Q: Does B9 bind [5]?
A: no binding

B10: BGA-6582 (humanized VHH from BGA-9612, Fc-VHH format) (VHH)
chain: EPKSSDKTHTCPPCPAPPAAGPSVFLFPPKPKDTLMISRTPEVTCVVVDVSHEDPEVKFNWYVDGVEVHNAKTKPREEQYNSTYRVVSVLTVLHQDWLNGKEYKCKVSNKALAAPIEKTISKAKGQPREPQVYTLPPSREEMTKNQVSLTCLVKGFYPSDIAVEWESNGQPENNYKTTPPVLDSDGSFFLYSKLTVDKSRWQQGNVFSCSVMHEALHNHYTQKSLSLSPGKGGGGSEVQLLESGGGLVQPGGSLRLSCAASGRTFDNYAVGWFRQAPGKERQYVGTYWSGYAHYGDFENNRFTISRDNSKNTVYLQMNSLRAEDTAVYYCAISLKYPMATVTPDYQGQGTLVTVSS
Q: Which results are given for B10?
A: Kd [1]: 27.7 nM; koff [1]: 0.000588 s⁻¹; kon [1]: 21200 M⁻¹ s⁻¹; Kd [5]: 13.6 nM; koff [5]: 0.000593 s⁻¹; kon [5]: 43500 M⁻¹ s⁻¹; Kd [3]: 27.7 nM; koff [3]: 0.000588 s⁻¹; kon [3]: 21200 M⁻¹ s⁻¹

B11: BGA-6582-V78L (VHH)
chain: EPKSSDKTHTCPPCPAPPAAGPSVFLFPPKPKDTLMISRTPEVTCVVVDVSHEDPEVKFNWYVDGVEVHNAKTKPREEQYNSTYRVVSVLTVLHQDWLNGKEYKCKVSNKALAAPIEKTISKAKGQPREPQVYTLPPSREEMTKNQVSLTCLVKGFYPSDIAVEWESNGQPENNYKTTPPVLDSDGSFFLYSKLTVDKSRWQQGNVFSCSVMHEALHNHYTQKSLSLSPGKGGGGSEVQLLESGGGLVQPGGSLRLSCAASGRTFDNYAVGWFRQAPGKERQYVGTYWSGYAHYGDFENNRFTISRDNSKNTLYLQMNSLRAEDTAVYYCAISLKYPMATVTPDYQGQGTLVTVSS
Q: What does the source list for B11?
A: Kd [5]: 13.6 nM; koff [5]: 0.000593 s⁻¹; kon [5]: 43500 M⁻¹ s⁻¹

B12: BGA-7031 (humanized VHH, Fc-VHH format) (VHH)
chain: EPKSSDKTHTCPPCPAPPAAGPSVFLFPPKPKDTLMISRTPEVTCVVVDVSHEDPEVKFNWYVDGVEVHNAKTKPREEQYNSTYRVVSVLTVLHQDWLNGKEYKCKVSNKALAAPIEKTISKAKGQPREPQVYTLPPSREEMTKNQVSLTCLVKGFYPSDIAVEWESNGQPENNYKTTPPVLDSDGSFFLYSKLTVDKSRWQQGNVFSCSVMHEALHNHYTQKSLSLSPGKGGGGSEVQLVESGGGLVQPGGSLRLSCAASGRTFDNYAVGWFRQAPGKEREYVGTYWSGYAHYGDFENNRFTISRDNSKNTVYLQMNNLRPEDTAVYYCAISLKYPMATVTPDYQGQGTQVTVSS
Q: Which EC50 [2] does the source give for B12 here?
A: 0.88 nM

Q: And the Kd [4]?
A: 11.7 nM

Q: What about the koff [4] of the same binder?
A: 0.000719 s⁻¹

Q: And the kon [4]?
A: 61600 M⁻¹ s⁻¹
